Experimental data reported in patent publication US20180355045A1 (LIMITED LIABILITY COMPANY ONCOMAX LLC ONCOMAX, published 2018).

Key:
[1] = biological target: T1, fibroblast growth factor receptor 1 (FGFR1), preparation not stated (UniProt P11362 22-376, limits assumed); assay: method not stated; antibody from the CHO-OM8-21 cell line; antibody from the CHO-OM8-21 cell line
T1 construct: also called FGF receptor; FGFR1 receptor
T1 sequence (looked up): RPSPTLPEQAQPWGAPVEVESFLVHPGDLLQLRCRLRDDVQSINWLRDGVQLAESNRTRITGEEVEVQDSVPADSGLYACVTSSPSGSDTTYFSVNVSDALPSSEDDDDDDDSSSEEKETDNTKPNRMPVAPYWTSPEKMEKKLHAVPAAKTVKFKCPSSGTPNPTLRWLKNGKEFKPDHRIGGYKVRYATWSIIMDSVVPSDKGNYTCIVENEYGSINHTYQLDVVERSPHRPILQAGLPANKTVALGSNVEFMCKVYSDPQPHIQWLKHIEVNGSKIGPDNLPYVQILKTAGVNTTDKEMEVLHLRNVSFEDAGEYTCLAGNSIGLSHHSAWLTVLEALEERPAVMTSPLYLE

[2] = biological target: T2, recombinant FGFR1 antigen (on the SPR chip; PA-269#37 or Sino Biologicals #10616-H08H, not told which) (human, UniProt P11362-7 22-374); assay: SPR (BIAcore T100), FGFR1 on a CM5 chip, antibody in flow, 1:1 model
T2 sequence (looked up): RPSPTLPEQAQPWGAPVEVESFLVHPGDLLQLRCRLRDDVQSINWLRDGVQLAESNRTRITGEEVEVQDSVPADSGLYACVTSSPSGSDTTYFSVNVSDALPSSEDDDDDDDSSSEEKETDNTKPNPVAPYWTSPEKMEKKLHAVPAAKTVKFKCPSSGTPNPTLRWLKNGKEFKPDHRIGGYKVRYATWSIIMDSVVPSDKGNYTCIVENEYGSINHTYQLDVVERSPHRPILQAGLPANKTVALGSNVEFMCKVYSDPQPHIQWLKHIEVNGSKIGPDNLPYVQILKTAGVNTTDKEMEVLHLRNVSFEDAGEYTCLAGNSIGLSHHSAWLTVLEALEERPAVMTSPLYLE
Procedure: Analysis of surface plasmon resonance was performed using the BIAcore T100 System Operation Kit (BIAcore; GE Healthcare). […] Different antibody variants were diluted in HBS-P buffer (10 mmol/L HEPES, pH 7.4, 0.15 mol/L NaCl and 0.05% surfactant P20) and passed over the sensor chip surface (25 μl/min). The sensory surface was washed with HBS-P buffer, and then regenerated using 10 mmol/L glycine-HCl (pH 2). Different antibody concentrations were tested ([…]). Different cyclic kinetic properties were determined, and the results were analyzed using the 1:1 (Langmuir) binding model, inclusive of the association rate constant (Kₒₙ), dissociation rate constant (Koff) and dissociation constant (Kd) (Biacore, GE Healthcare).

- Kd [1]: 9.27 nM
- Kd [2]: 1.59 nM
B1: humanized anti-FGFR1 antibody OM-RCA-01 (VH3/VL5) (antibody, human IgG1, kappa, V domains shown)
VH: QVQLQESGPGLVKPSQTLSLTCTVSGYSITSDYAWSWIRQHPGKGLEWIGYITYSGTTYYNPSLKSRVTISVDTSKNQFSLKLSSVTAADTAVYYCARDGNYFDYWGQGTLVTVSS
VL: DIQLTQSPSFLSASVGDRVTITCRASSSVSSSYLHWYQQKPGKAPKLLIYRTSTLQSGVPSRFSGSGSGTEFTLTISSLQPEDFATYYCQQWSGYPLTFGGGTKVEIKR
notes: Human IgG1 (IGHG1*03) / kappa; also called VH3A/L5; OM1
